# T1: rat ASGR1 (Rattus norvegicus, UniProt P02706)
# T1 construct: expressed in transfected cells; host or cells: CHO-S
# T1 sequence (P02706 1-284): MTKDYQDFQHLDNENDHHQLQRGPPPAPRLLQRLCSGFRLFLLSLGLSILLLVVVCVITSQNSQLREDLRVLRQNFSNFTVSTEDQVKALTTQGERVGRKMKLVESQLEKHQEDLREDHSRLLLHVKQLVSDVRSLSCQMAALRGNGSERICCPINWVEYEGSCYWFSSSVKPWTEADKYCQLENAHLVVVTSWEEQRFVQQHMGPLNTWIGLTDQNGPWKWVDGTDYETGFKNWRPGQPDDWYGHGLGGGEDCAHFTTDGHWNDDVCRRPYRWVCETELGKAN
# T2: rat CLEC10A ECD (Rattus norvegicus, UniProt P49301)
# T2 construct: His-tagged rat CLEC10A ECD (R&D Systems) was immobilized to OCTET® Penta-His biosensors; purchased R&D Systems
# T2 sequence (P49301 59-306 limits assumed): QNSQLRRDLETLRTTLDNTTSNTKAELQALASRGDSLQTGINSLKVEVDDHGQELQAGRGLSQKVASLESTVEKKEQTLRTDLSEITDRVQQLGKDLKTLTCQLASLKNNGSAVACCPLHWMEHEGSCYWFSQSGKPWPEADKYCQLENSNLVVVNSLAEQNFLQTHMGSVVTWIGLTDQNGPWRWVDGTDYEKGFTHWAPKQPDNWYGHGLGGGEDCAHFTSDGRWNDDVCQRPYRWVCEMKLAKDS
# T3: human ASGR1 extracellular domain (ECD) (Homo sapiens, UniProt P07306)
# T3 sequence (P07306 62-291 limits assumed): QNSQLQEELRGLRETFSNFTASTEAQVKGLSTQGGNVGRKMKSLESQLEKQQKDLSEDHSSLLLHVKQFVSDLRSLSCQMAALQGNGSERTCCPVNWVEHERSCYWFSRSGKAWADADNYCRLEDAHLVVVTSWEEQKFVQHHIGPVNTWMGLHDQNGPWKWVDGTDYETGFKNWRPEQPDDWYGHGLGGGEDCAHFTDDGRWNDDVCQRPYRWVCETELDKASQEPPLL
# How the values were obtained:
# rat ASGR1 = biological target: T1, rat ASGR1; assay: Cell binding to rat ASGR1 transiently expressed by CHO-S cells (GUAVA); settings: in words
# Protocol: Anti-human ASGR1 antibodies of this disclosure were examined for cross-reactivity with Cynomolgus macaque and rat ASGR1. Briefly, sequence encoding Cynomolgus macaque or rat ASGR1 was transiently transfected into CHO-S cells. Transfected cells were before performing cell binding assay. A total of about 1.5×10^4 transfected cells/well were added to 96-well V-bottom assay plate, incubated at 37° C., 5% CO2 for 48-72 hours, and then washed with culture medium before adding 100 μl of each ASGR1 antibody at different concentrations starting from 100 nM and 3-fold dilutions to a total of eight wells. The cells with antibody were incubated for 40 minutes at 4° C., then washed three times with 200 μl of fresh culture medium. To each well was added 50 μl PE conjugated goat anti-human Fc (SouthemBiotech) at 1:200 dilution in culture medium and then incubated at 4° C. for 20 minutes. After washing the plate once, the treated cells were resuspended in 200 μl culture medium and then the stained cells were analyzed on GUAVA® using Incyte software.
# [1] = system: human PBMCs cultured with ASGR1-expressing tumor cell line HepG2; assay: TNF-α production by human PBMC co-cultured with HepG2 (AlphaLISA); format: cell-based; settings: PBMC:HepG2 5:1, 24 hours
# Protocol: The effect on TNF-α production by human PBMCs co-cultured with ASGR1 expressing HepG2 tumor cells and in the presence of anti-ASGR1-TLR8 agonist conjugates was examined. An increase in TNF-α production by human PBMCs would indicate that myeloid cells are being activated. Briefly, peripheral blood mononuclear cells (PBMC) were isolated from normal human donor blood using SEPMATE™-50 PBMC Isolation Tubes ([…] Technologies) according to manufacturer's instructions. Isolated PBMC were cultured with the ASGR1-expressing tumor cell line HepG2 or the ASGR1-negative cell line HEK 293 at a 5:1 ratio in the presence of titrated concentrations of anti-ASGR1-TLR8 agonist conjugates (G2D-Compound 2.14, J4F-Compound 2.14, K2E-Compound 2.14, L4L-Compound 2.14, hzL4L-7-Compound 2.14, hzL4L-14-Compound 2.14, H8K-Compound 2.14, hzH8K-1-Compound 2.14, and hzH8K-10-Compound 2.14, as well as control conjugates comprised of ASGR1-mAb-A-Compound 2.14, ASGR1-mAb-B-Compound 2.14, ASGR1-mAb-C-Compound 2.14, anti-digoxin mAb-Compound 2.14, and unconjugated antibody controls). After 24 hours, cell-free supernatants were collected and stored at −80° C. prior to analysis. TNF-α levels in the cell-free supernatants were quantified using the TNF-α (human) AlphaLISA® Detection Kit (Perkin Elmer) according to manufacturer's instructions.
# rat CLEC10A ECD = biological target: T2, rat CLEC10A ECD; assay: OCTET avidity binding to immobilized rat CLEC10A ECD; settings: for Binding signal to rat CLEC10A ECD: in words; for Response, binding to rat CLEC10A ECD: test antibody at 25 μg/mL
# Protocol: Analysis of binding to the rat CLEC10A ECD was performed using the OCTET® Red 96 instrument (ForteBio). His-tagged rat CLEC10A ECD (R&D Systems) was immobilized to OCTET® Penta-His biosensors and subjected to avidity binding of test antibodies in kinetics buffer (PBS+1% BSA+0.2% Tween20+0.9 mM CaCl2) at pH 7.4) in the following steps: (1) hydration of Penta-His biosensors in kinetics buffer (10 min); (2) regeneration and neutralization of Penta-His biosensor in 10 mM glycine-HCl (pH 1.5) and kinetics buffer, respectively in triplicate; (3) baseline acquisition (30 s); (4) immobilization of rat CLEC10A ECD to Penta-His biosensors at a concentration of 10 μg/mL (180 s); (5) second baseline acquisition (60 s); (6) association of test antibody at 25 μg/mL (60 s); (7) dissociation in kinetics buffer (60 s).
# The interactions of test mAbs with rat CLEC10A ECD was analyzed using the OCTET® Data Analysis Software 9.0 (ForteBio).
# [2] = biological target: T3, human ASGR1 extracellular domain (ECD); assay: Effect of calcium on binding to human ASGR1 ECD (OCTET); parameters: key to Ca^2+ Sensitivity during: Association / Ca^2+ Sensitivity during: Dissociation / Ca^2+ Sensitivity: N = No; Y = Yes
# Protocol: The ability of anti-human ASGR1 antibodies of this disclosure to bind to human ASGR1 in the presence or absence of calcium in binding buffer was examined. Briefly, ASGR1 antibodies were bound to immobilized human ASGR1 extracellular domain (ECD) at saturating levels and subsequently dissociated under three different conditions as follows: (a) binding and dissociation with buffer containing calcium (PBS+1% BSA+0.2% Tween20+0.9 mM CaCl2), pH 7.4); (b) binding with buffer containing calcium and dissociation with buffer lacking calcium; and (c) binding and dissociation with buffer lacking calcium. Analysis of ASGR1 antibody binding to human ASGR1 ECD was performed using the OCTET® Red 96 instrument and analyzed using the OCTET®Data Analysis Software 9.0 (ForteBio). His-tagged human ASGR1 ECD was immobilized to OCTET® Penta-His biosensors and ASGR1 antibodies were subjected to avidity binding under the conditions described above. Association with the ASGR1 ECD was measured by the rate of and increase in magnitude of signal response at a given antibody concentration. Dissociation from the ASGR1 ECD was measured as the rate of loss in signal upon removal of the antibody and further incubation with or without Ca^2+. […] Also tested were humanized antibodies hzH8K-1 and hzL4L-7.
# Further analysis of the antibodies of this disclosure was to determine whether the presence of calcium was needed for binding (i.e., during association) of the antibodies to human ASGR1 ECD. […]
Cross-reactivity with rat ASGR1 (rat ASGR1),Binding signal to rat CLEC10A ECD (rat CLEC10A ECD),Ca^2+ Sensitivity [2],Ca^2+ Sensitivity during: Association [2],Ca^2+ Sensitivity during: Dissociation [2],Sensitivity to calcium (difference in binding signal after dissociation >±10%) ([2]; in words),Molecule,TNF-α production from human PBMCs [1],"Response, binding to rat CLEC10A ECD (rat CLEC10A ECD)"
not rat cross-reactive,No observable binding signal,N,N,N,lacking sensitivity to calcium,"hzL4L-7: ""humanized anti-ASGR1 antibodies hzL4L-7 and hzL4L-14 as compared to parent mouse anti-ASGR1 antibody L4L"" (antibody, V domains shown, human IgG1/kappa constant regions; Synthetic sequence hzL4.6L VH G27Y, S70T, V71R; Synthetic sequence hzL4L VL) VH: QVQLQESGPGLVKPSQTLSLTCTVSGYSISSDYAWNWIRQHPGKGLEWIGYISYSGSTRYNPSLKSRVTITRDTSKNQFSLKLSSVTAADTAVYYCARRYRYDEGYGMDYWGQGTTVTVSS VL: DIQMTQSPSSLSASVGDRVTITCRASENIYSNLAWYQQKPGKAPKLLIYAATNLADGVPSRFSGSGSGTDFTLTISSLQPEDFATYYCQHFWGTPPWTFGGGTKVEIK",more efficient at inducing TNF-α production as compared to the parent antibody conjugates,— (Antibodies tested with response of <0.02 nm were below the limit of detection (—))
not rat cross-reactive,even less above background binding,N,N,N,,"hzH8K-1: ""humanized anti-ASGR1 antibodies hzH8K-1 and hzH8K-10 as compared to parent mouse anti-ASGR1 antibody H8K"" (antibody, V domains shown, Synthetic sequence hzH8K VH; Synthetic sequence hzH8K VL) VH: QVQLQESGPGLVKPSQTLSLTCTVSGGSISSDYAWNWIRQHPGKGLEWIGYRSYRGSTSYNPSLKSRVTISVDTSKNQFSLKLSSVTAADTAVYYCARRGYYGSSSHWYFDVWGQGTTVTVSS VL: DIQMTQSPSSLSASVGDRVTITCRASENIYSYLAWYQQKPGKAPKLLIYNAKTLAEGVPSRFSGSGSGTDFTLTISSLQPEDFATYYCQHHYGTPLTFGGGTKVEIK",more efficient at inducing TNF-α production as compared to the parent antibody conjugates,0.0495 nm

# From patent US11541126B1, “Anti-ASGR1 antibody TLR8 agonist comprising conjugates and uses thereof” (Silverback Therapeutics, Inc., priority 2020, dated 2023)
